Columns and labels:
[1] = target: HLA-C*07:01 purified from the Steinlin EBV transformed homozygous cell line (human (endogenous in the Steinlin EBV transformed cell line)); assay: radioligand binding; classical MHC-peptide inhibition of binding assay specific for HLA-C*07:01: purified MHC from the Steinlin line, radiolabeled 3424.0028 as probe, test peptides as inhibitors, anti-HLA Class I B123.2 mAb
[2] = target: HLA-B*08:01 (human (endogenous in the Steinlin EBV transformed cell line)); assay: radioligand binding; previously validated B*08:01 inhibition of binding assay (ref. 10); radiolabeled probe not named

Q: For “peptide 3424.0028 (…, DNA replication licensing factor MCM5 289-297)”, which affinity (from inhibition of binding) [1] is on record?
A: 0.21 nM

Q: What about the fold lower affinity than in the C*07:01 assay [2] of the same substance?
A: 1500 fold

Source: publication PMC8439434
